Results as given in patent publication US20210113690A1 (BERLIN CHEMIE, published 2021).

Legend:
Assay in all cases: peptide microarray, 8mer on the chip, 1 µg/mL LY75_A1, anti-human IgG Alexa 647
SCYKVFHA = molecular target: T1, SCYKVFHA
T1 construct: LY75 8mer on the microarray
T1 peptide: SCYKVFHA
Procedure: (§1) The peptide microarray analysis was performed by LC Sciences, Houston Tex., in brief the method comprised the following steps: —Contiguous 8mer peptides of LY75 protein having […] spanning residues 216 to 1666 of the full length LY75 protein were synthesized and immobilized on a microarray chip. The chip comprised three panels such that the experiment was performed in triplicate. […] The binding assay was performed under the following conditions:—
(§2) The microarray comprising the contiguous peptides in triplicate was washed with 1 mL of binding buffer at 4° C. for 20 min. […] The array was again washed with 0.5 mL of washing buffer at 4° C. for 30 min then incubated with 25 ng/mL anti-human IgG Alexa 647 conjugate in binding buffer (pH 7.0) at 4° C. for 1 hr. The array was again washed with 0.5 mL of washing buffer at 4° C. for 30 min.

RRGWHFYD = molecular target: T2, RRGWHFYD
T2 construct: LY75 8mer on the microarray; aa 763-770 counted from Region 3 (aa761-780)
T2 peptide: RRGWHFYD
Procedure: as §1, §2

YDDREFIY = molecular target: T3, YDDREFIY
T3 construct: LY75 8mer on the microarray; aa 769-776 counted from Region 3 (aa761-780)
T3 peptide: YDDREFIY
Procedure: as §1, §2

YPWHRFPV = molecular target: T4, YPWHRFPV
T4 construct: LY75 8mer on the microarray
T4 peptide: YPWHRFPV
Procedure: as §1, §2

PWHRFPVT = molecular target: T5, PWHRFPVT
T5 construct: LY75 8mer on the microarray
T5 peptide: PWHRFPVT
Procedure: as §1, §2

WHRFPVTF = molecular target: T6, WHRFPVTF
T6 construct: LY75 8mer on the microarray
T6 peptide: WHRFPVTF
Procedure: as §1, §2

HRFPVTFG = molecular target: T7, HRFPVTFG
T7 construct: LY75 8mer on the microarray
T7 peptide: HRFPVTFG
Procedure: as §1, §2

RELTYSNF = molecular target: T8, RELTYSNF
T8 construct: LY75 8mer on the microarray
T8 peptide: RELTYSNF
Procedure: as §1, §2

YSNFHPLL = molecular target: T9, YSNFHPLL
T9 construct: LY75 8mer on the microarray
T9 peptide: YSNFHPLL
Procedure: as §1, §2

FTSCSERH = molecular target: T10, FTSCSERH
T10 construct: LY75 8mer on the microarray
T10 peptide: FTSCSERH
Procedure: as §1, §2

TSCSERHF = molecular target: T11, TSCSERHF
T11 construct: LY75 8mer on the microarray
T11 peptide: TSCSERHF
Procedure: as §1, §2

SCSERHFV = molecular target: T12, SCSERHFV
T12 construct: LY75 8mer on the microarray
T12 peptide: SCSERHFV
Procedure: as §1, §2

SERHFVSL = molecular target: T13, SERHFVSL
T13 construct: LY75 8mer on the microarray
T13 peptide: SERHFVSL
Procedure: as §1, §2

FVSLCQKY = molecular target: T14, FVSLCQKY
T14 construct: LY75 8mer on the microarray
T14 peptide: FVSLCQKY
Procedure: as §1, §2

VSLCQKYS = molecular target: T15, VSLCQKYS
T15 construct: LY75 8mer on the microarray
T15 peptide: VSLCQKYS
Procedure: as §1, §2

YLNNLYKI = molecular target: T16, YLNNLYKI
T16 construct: LY75 8mer on the microarray
T16 peptide: YLNNLYKI
Procedure: as §1, §2

LNNLYKII = molecular target: T17, LNNLYKII
T17 construct: LY75 8mer on the microarray
T17 peptide: LNNLYKII
Procedure: as §1, §2

SLSCYKVF = molecular target: T18, SLSCYKVF
T18 construct: LY75 8mer on the microarray
T18 peptide: SLSCYKVF
Procedure: as §1, §2

KKLSRLTY = molecular target: T19, KKLSRLTY
T19 construct: LY75 8mer on the microarray
T19 peptide: KKLSRLTY
Procedure: as §1, §2

KLSRLTYS = molecular target: T20, KLSRLTYS
T20 construct: LY75 8mer on the microarray
T20 peptide: KLSRLTYS
Procedure: as §1, §2

LSRLTYSS = molecular target: T21, LSRLTYSS
T21 construct: LY75 8mer on the microarray
T21 peptide: LSRLTYSS
Procedure: as §1, §2

NGSRWIQY = molecular target: T22, NGSRWIQY
T22 construct: LY75 8mer on the microarray
T22 peptide: NGSRWIQY
Procedure: as §1, §2

LSCYKVFH = molecular target: T23, LSCYKVFH
T23 construct: LY75 8mer on the microarray
T23 peptide: LSCYKVFH
Procedure: as §1, §2

RWIQYKGH = molecular target: T24, RWIQYKGH
T24 construct: LY75 8mer on the microarray
T24 peptide: RWIQYKGH
Procedure: as §1, §2

QYKGHCYK = molecular target: T25, QYKGHCYK
T25 construct: LY75 8mer on the microarray
T25 peptide: QYKGHCYK
Procedure: as §1, §2

YKGHCYKS = molecular target: T26, YKGHCYKS
T26 construct: LY75 8mer on the microarray
T26 peptide: YKGHCYKS
Procedure: as §1, §2

GWHFYDDR (765-772) = molecular target: T27, GWHFYDDR (765-772) (human)
T27 construct: Tryptic peptide of recombinant LY75, found by LC-MS/MS after pull down
T27 peptide: GWHFYDDR
Procedure: as §1, §2

Measured: binding result

B1: LY75_A1 monoclonal antibody (antibody, human IgG1, kappa, V domains shown)
VH: EVQLVESGGGLVKPGGSLRLSCAASGFTYSNAWMSWVRQAPGKGLEWVGRIKSKTDGGTTDYAAPVQGRFTISRDDSKNTLYLQMNSLKTEDTAVYYCTIFGVVSFDYWGQGTLVTVSS
VL: DVQMTQSPSSLSASVGDRVTITCRASQSISDYLSWYQQRPGKAPNLLIYAASNLKTGVPSRFSGSGSGTDFTLTISTLQPEDFATYYCQQSYRSPWTFGQGTKVEIKR
notes: also called LY75A1 antibody; antibody LY75_A1
binds: SCYKVFHA | RRGWHFYD | YDDREFIY | YPWHRFPV | PWHRFPVT | WHRFPVTF | HRFPVTFG | RELTYSNF | YSNFHPLL | FTSCSERH | TSCSERHF | SCSERHFV | SERHFVSL | FVSLCQKY | VSLCQKYS | YLNNLYKI | LNNLYKII | SLSCYKVF | KKLSRLTY | KLSRLTYS | LSRLTYSS | NGSRWIQY | LSCYKVFH | RWIQYKGH | QYKGHCYK | YKGHCYKS | GWHFYDDR (765-772)
